Experimental findings from US20260242839A1, “GLYCOSIDE PRODUCT BIOSYNTHESIS AND RECOVERY” (Manus Bio Inc., priority 2023, published 2026) are described below.

Holding throughout (type): cell-based, E. coli
Series [1] concerns steviol glycoside. Nature of the series: steviol glycoside bioconversion with complemented sucrose synthases in chassis strain. Particulars: chassis strain with UGT SEQ ID NOS: 15 and 25, stevia leaf extract, glucose fed, 37° C., 48 hr, FIG. 3. The source says: Strains were created that expressed candidate sucrose synthase enzymes, which may improve UDP-glucose availability when fed sucrose. Expression of a sucrose synthase enables splitting of sucrose into fructose and glucose. Glucose can be funneled towards UDP-glucose biosynthesis. […] Genes were complemented on plasmid. Fold improvement is with respect to total steviol glycoside conversion. Stevia leaf extract, sucrose, and glucose were fed to the bioconversion strains. Bioconversion took place at 37° C. for 48 hr. Data were quantified by reverse phase LC DAD to quantify conversion of steviol glycosides.

Series [2] relates to steviol glycoside. Nature of the series: steviol glycoside bioconversion with overexpressed genes complemented on plasmid. Particulars: chassis strain with UGT SEQ ID NOS: 14 and 24; stevia leaf extract and glucose fed; 37° C., 48 hr; FIG. 2. The protocol: Other bacterial genes were overexpressed, and bioconversion tested as compared to the chassis strain expressing UGT enzymes of SEQ ID NOS: 14 and 24. […] Fold improvement is with respect to total steviol glycoside conversion. Stevia leaf extract and glucose were fed to the bioconversion strains. Bioconversion took place at 37° C. for 48 hr. Data were quantified by reverse phase LC DAD to quantify conversion of steviol glycosides.

The subject of series [3] is Mog. IIE or Mog. IE. Nature of the series: branched glycosylation reactions by cells expressing UGT enzymes. Conditions: Mog. IIE or Mog. IE fed; 37° C., 48 hr; LC-MS/MS. The protocol:
Mog. IIE or Mog. IE was fed to cells expressing various UGT enzymes. Reactions were incubated at 37° C. for 48 hr. Products were quantified by LC-MS/MS with authentic standards of each compound. “Indirect” evidence means that consumption of substrate was observed.

Series [4] relates to Mog. II-E. Nature of the series: production of Mog.III or siamenoside from Mog. II-E. Particulars: 37° C., 48 hr; FIG. 19. The protocol:
II-E. In the experiment, engineered E. coli strains expressing UGT enzymes SEQ ID NO: 72, SEQ ID NO: 54 or SEQ ID NO: 13 were grown in fermentation media containing Mog. II-E at 37° C. for 48 hr. Products were quantified by LCMS/MS with authentic standards of each compound. […] IIE to Mog.III.

As to “SEQ ID NO: 11: sucrose synthase, Glycine Max (GmSS_S11E)”, the “improvement of total steviol glycoside conversion by sucrose synthase” value (from here on “improvement … by sucrose synthase”) in series [1] is recorded as “dramatic improvements in glycosylation”.

“SEQ ID NO: 7: sucrose synthase, Arabidopsis thaliana (AtSus3)”: the “improvement … by sucrose synthase” value in series [1] is on record as “dramatic improvements in glycosylation”. In the case of “SEQ ID NO: 2: sucrose synthase, Solanum tuberosum (StSus2)”, the “improvement … by sucrose synthase” value in series [1] is reported as “dramatic improvements in glycosylation”. Consider “SEQ ID NO: 8: sucrose synthase, Vigna radiate (VrSS1)”, for which, in series [1], the “improvement … by sucrose synthase” value is “dramatic improvements in glycosylation”. “SEQ ID NO: 6: sucrose synthase, Arabidopsis thaliana (AtSus1)”: the “improvement … by sucrose synthase” value in series [1] is on record as “dramatic improvements in glycosylation”. Regarding “SEQ ID NO: 10: sucrose synthase, Glycine Max (GmSS)”, the “improvement … by sucrose synthase” value in series [1] is “dramatic improvements in glycosylation”. On to “SEQ ID NO: 3: sucrose synthase, Solanum tuberosum (StSus2_S11E)”, for which the “improvement … by sucrose synthase” value in series [1] is given as “dramatic improvements in glycosylation”.

Take “SEQ ID NO: 9: sucrose synthase, Vigna radiate (VrSS1_S11E)”: the “improvement … by sucrose synthase” value in series [1] is reported as “dramatic improvements in glycosylation”.

B1: ycjU: E. coli ycjU (β-phosphoglucomutase), complemented on plasmid (protein, listed as Escherichia coli)
chain: MKLQGVIFDLDGVITDTAHLHFQAWQQIAAEIGISIDAQFNESLKGISRDESLRRILQHGGKEGDFNSQERAQLAYRKNLLYVHSLRELTVNAVLPGIRSLLADLRAQQISVGLASVSLNAPTILAALELREFFTFCADASQLKNSKPDPEIFLAACAGLGVPPQACIGIEDAQAGIDAINASGMRSVGIGAGLTGAQLLLPSTESLTWPRLSAFWQNV
Turning to B1, the “improvement of total steviol glycoside conversion by gene complementation” value (“improvement … by gene complementation” for short) in series [2] is reported as “improved overall glycosylation”.

B2: SEQ ID NO: 72: HvUGT B1 (Hordeum vulgare subsp. Vulgare) (protein)
chain: MAQAESERMRVVMFPWLAHGHINPYLELAKRLIASASGDHHLDVVVHLVSTPANLAPLAHHQTDRLRLVELHLPSLPDLPPALHTTKGLPARLMPVLKRACDLAAPRFGALLDELCPDILVYDFIQPWAPLEAEARGVPAFHFATCGAAATAFFIHCLKTDRPPSAFPFESISLGGVDEDAKYTALVTVREDSTALVAERDRLPLSLERSSGFVAVKSSADIERKYMEYLSQLLGKEIIPTGPLLVDSGGSEEQRDGGRIMRWLDGEEPGSVVFVSFGSEYFMSEHQMAQMARGLELSGVPFLWVVRFPNAEDDARGAARSMPPGFEPELGLVVEGWAPQRRILSHPSCGAFLTHCGWSSVLESMAAGVPMVALPLHIDQPLNANLAVELGAAAARVKQERFGEFTAEEVARAVRAAVKGKEGEAARRRARELQEVVARNNGNDGQIATLLQRMARLCGKDQAVPN
modifications: Hordeum vulgare
As to B2, in series [3], the “C3 1-2” value is listed as “No”, the “C3 1-6” value is “Yes”, the “C24 1-2” value is recorded as “No” and the “C24 1-6” value was “No”. Also, in series [4], the “bioconversion of Mog. IIE to Mog.III” value is on record as “able to catalyze bioconversion of Mog. IIE to Mog.III”.

B3: SEQ ID NO: 54: UGT enzyme (Ziziphus jujube) (protein, listed as Ziziphus jujuba)
chain: MMERQRSIKVLMFPWLAHGHISPFLELAKRLTDRNFQIYFCSTPVNLTSVKPKLSQKYSSSIKLVELHLPSLPDLPPHYHTTNGLALNLIPTLKKAFDMSSSSFSTILSTIKPDLLIYDFLQPWAPQLASCMNIPAVNFLSAGASMVSFVLHSIKYNGDDHDDEFLTTELHLSDSMEAKFAEMTESSPDEHIDRAVTCLERSNSLILIKSFRELEGKYLDYLSLSFAKKVVPIGPLVAQDTNPEDDSMDIINWLDKKEKSSTVFVSFGSEYYLTNEEMEEIAYGLELSKVNFIWVVRFPLGQKMAVEEALPKGFLERVGEKGMVVEDWAPQMKILGHSSIGGFVSHCGWSSLMESLKLGVPIIAMPMQLDQPINAKLVERSGVGLEVKRDKNGRIEREYLAKVIREIVVEKARQDIEKKAREMSNIITEKGEEEIDNVVEELAKLCGM
In the case of B3, in series [3], the “C3 1-2” value is reported as “No”, the “C3 1-6” value is reported as “Yes”, the “C24 1-2” value is “No” and the “C24 1-6” value is “Yes”. Further, the “bioconversion of Mog. IIE to Mog.III” value in series [4] was “able to catalyze bioconversion of Mog. IIE to Mog.III”.

B4: SEQ ID NO: 13: Synthetic UGT enzyme (MbUGT1,2.2) (protein)
chain: MATKGSSGMSLAERFWLTLSRSSLVVGRSCVEFEPETVPLLSTLRGKPITFLGLMPPLHEGRREDGEDATVRWLDAQPAKSVVYVALGSEVPLGVEKVHELALGLELAGTRFLWALRKPTGVSDADLLPAGFEERTRGRGVVATRWVPQMSILAHAAVGAFLTHCGWNSTIEGLMFGHPLIMLPIFGDQGPNARLIEAKNAGLQVARNDGDGSFDREGVAAAIRAVAVEEESSKVFQAKAKKLQEIVADMACHERYIDGFIQQLRSYKDDSGYSSSYAAAAGMHVVICPWLAFGHLLPCLDLAQRLASRGHRVSFVSTPRNISRLPPVRPALAPLVAFVALPLPRVEGLPDGAESTNDVPHDRPDMVELHRRAFDGLAAPFSEFLGTACADWVIVDVFHHWAAAAALEHKVPCAMMLLGSAEMIASIADERLEHAETESPAAAGQGRPAAAPTFEVARMKLIR
Regarding B4, in series [3], the “C3 1-2” value is recorded as “Yes”, the “C3 1-6” value was “Yes”, the “C24 1-2” value is recorded as “Yes” and the “C24 1-6” value is recorded as “Yes”. Moreover, in series [4], the “bioconversion of Mog. IIE to Mog.III” value is reported as “able to catalyze bioconversion of Mog. IIE to Mog.III” and the “production of siamenoside from Mog. II-E” value was “production of substantial amounts of siamenoside”.

B5: ndk: E. coli ndk (nucleoside diphosphate kinase), complemented on plasmid (protein, listed as Escherichia coli)
chain: MAIERTFSIIKPNAVAKNVIGNIFARFEAAGFKIVGTKMLHLTVEQARGFYAEHDGKPFFDGLVEFMTSGPIVVSVLEGENAVQRHRDLLGATNPANALAGTLRADYADSLTENGTHGSDSVESAAREIAYFFGEGEVCPRTR
For the molecule B5, the “improvement … by gene complementation” value in series [2] was “improved overall glycosylation”.

B6: cmk: E. coli cmk (cytidylate kinase), complemented on plasmid (protein, listed as Escherichia coli)
chain: MTAIAPVITIDGPSGAGKGTLCKAMAEALQWHLLDSGAIYRVLALAALHHHVDVASEDALVPLASHLDVRFVSTNGNLEVILEGEDVSGEIRTQEVANAASQVAAFPRVREALLRRQRAFRELPGLIADGRDMGTVVFPDAPVKIFLDASSEERAHRRMLQLQEKGFSVNFERLLAEIKERDDRDRNRAVAPLVPAADALVLDSTTLSIEQVIEKALQYARQKLALA
With B6, the “improvement … by gene complementation” value in series [2] was “improved overall glycosylation”.
